Data published in patent US20070060537.

Assays:
[1] = target: E2 Ubch5c from bacteria, P61077
[2] = target: GST-UbcH5a, P51668
[3] = target: GST-UbcH5c, P61077
[4] = target: His-UbcH6, P51965
[5] = target: His6-UbcH13/Uev1a, Q13404
Chain of His6-UbcH13/Uev1a, Q13404 (chain, as listed by the source, chain 1 of 2): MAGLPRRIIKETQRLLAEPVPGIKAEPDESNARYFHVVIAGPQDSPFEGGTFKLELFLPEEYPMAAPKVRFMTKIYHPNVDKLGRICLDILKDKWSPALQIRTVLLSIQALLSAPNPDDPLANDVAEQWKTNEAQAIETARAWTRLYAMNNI
Chain of His6-UbcH13/Uev1a, Q13404 (Q13404 other isoform, or with tags, fused parts or gaps, chain 2 of 2): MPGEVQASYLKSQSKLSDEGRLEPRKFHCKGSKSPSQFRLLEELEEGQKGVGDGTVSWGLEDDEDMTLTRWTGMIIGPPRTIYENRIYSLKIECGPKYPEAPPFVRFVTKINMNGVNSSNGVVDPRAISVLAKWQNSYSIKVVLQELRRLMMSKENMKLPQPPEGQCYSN

Chain of E2 Ubch5c from bacteria, P61077 (P61077 whole entry): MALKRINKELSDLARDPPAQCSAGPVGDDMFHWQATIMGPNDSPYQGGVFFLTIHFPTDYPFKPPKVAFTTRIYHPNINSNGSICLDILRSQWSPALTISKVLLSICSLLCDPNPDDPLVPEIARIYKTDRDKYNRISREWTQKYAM
Chain of His-UbcH6, P51965 (P51965 whole entry): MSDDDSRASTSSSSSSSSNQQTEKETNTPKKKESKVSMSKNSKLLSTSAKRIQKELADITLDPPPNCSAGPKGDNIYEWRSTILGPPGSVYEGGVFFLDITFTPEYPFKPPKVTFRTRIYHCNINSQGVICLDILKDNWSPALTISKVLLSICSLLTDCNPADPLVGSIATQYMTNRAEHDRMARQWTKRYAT
Chain of GST-UbcH5c, P61077 (P61077 whole entry): as the sequence (P61077 whole entry) above
Chain of GST-UbcH5a, P51668 (P51668 whole entry): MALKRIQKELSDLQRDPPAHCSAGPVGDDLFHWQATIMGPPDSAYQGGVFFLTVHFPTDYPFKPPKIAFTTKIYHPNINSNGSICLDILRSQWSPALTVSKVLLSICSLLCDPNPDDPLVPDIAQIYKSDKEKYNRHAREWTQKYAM

Protein	in-vitro self-ubiquitination of hPOSH (anti-ubiquitin immunoblot) [1]	self-ubiquitination of hPOSH (high molecular weight ubiquitin-biotin conjugates, streptavidin blot) [2]	self-ubiquitination of hPOSH (high molecular weight ubiquitin-biotin conjugates, streptavidin blot) [3]	self-ubiquitination of hPOSH (high molecular weight ubiquitin-biotin conjugates, streptavidin blot) [4]	self-ubiquitination of hPOSH (high molecular weight ubiquitin-biotin conjugates, streptavidin blot) [5]
POSH #178 (1-361) gst fusion (protein) MDESALLDLLECPVCLERLDASAKVLPCQHTFCKRCLLGIVGSRNELRCPECRTLVGSGVEELPSNILLVRLLDGIKQRPWKPGPGGGSGTNCTNALRSQSSTVANCSSKDLQSSQGGQQPRVQSWSPPVRGIPQLPCAKALYNYEGKEPGDLKFSKGDIIILRRQVDENWYHGEVNGIHGFFPTNFVQIIKPLPQPPPQCKALYDFEVKDKEADKDCLPFAKDDVLTVIRRVDENWAEGMLADKIGIFPISYVEFNSAAKQLIEWDKPPVPGVDAGECSSAAAQSSTAPKHSDTKKNTKKRHSFTSLTMANKSSQASQNRHSMEISPPVLISSSNPTAAARISELSGLSCSAPSQVHIST	Ub-hPOSHconjugates, detected as high molecular weight adducts only in reactions containing E1, E2 and ubiquitin				
POSH # 176 (1-269) gst fusion (protein) MDESALLDLLECPVCLERLDASAKVLPCQHTFCKRCLLGIVGSRNELRCPECRTLVGSGVEELPSNILLVRLLDGIKQRPWKPGPGGGSGTNCTNALRSQSSTVANCSSKDLQSSQGGQQPRVQSWSPPVRGIPQLPCAKALYNYEGKEPGDLKFSKGDIIILRRQVDENWYHGEVNGIHGFFPTNFVQIIKPLPQPPPQCKALYDFEVKDKEADKDCLPFAKDDVLTVIRRVDENWAEGMLADKIGIFPISYVEFNSAAKQLIEWDKP	Ub-hPOSHconjugates, detected as high molecular weight adducts only in reactions containing E1, E2 and ubiquitin				
GST-hPOSH1-139 (protein) MDESALLDLLECPVCLERLDASAKVLPCQHTFCKRCLLGIVGSRNELRCPECRTLVGSGVEELPSNILLVRLLDGIKQRPWKPGPGGGSGTNCTNALRSQSSTVANCSSKDLQSSQGGQQPRVQSWSPPVRGIPQLPCA		conjugation of ubiquitin to hPOSH was supported by four E2s, UbCH13/Uevla, UBCH5a, UBCH5c and UBCH6	conjugation of ubiquitin to hPOSH was supported by four E2s, UbCH13/Uevla, UBCH5a, UBCH5c and UBCH6	conjugation of ubiquitin to hPOSH was supported by four E2s, UbCH13/Uevla, UBCH5a, UBCH5c and UBCH6	conjugation of ubiquitin to hPOSH was supported by four E2s, UbCH13/Uevla, UBCH5a, UBCH5c and UBCH6
